For experiment [1], the target named is T1, mouse TREM2 on cells (mouse, UniProt Q99NH8 19-227).
T1 construct: whole, on cells; Used for the recombinant protein on BWZ/BW cells (with mouse DAP12) and for the native protein on mouse macrophages and dendritic cells; the cell type stands under assay; also called mTREM2; mTrem2
T1 sequence (looked up): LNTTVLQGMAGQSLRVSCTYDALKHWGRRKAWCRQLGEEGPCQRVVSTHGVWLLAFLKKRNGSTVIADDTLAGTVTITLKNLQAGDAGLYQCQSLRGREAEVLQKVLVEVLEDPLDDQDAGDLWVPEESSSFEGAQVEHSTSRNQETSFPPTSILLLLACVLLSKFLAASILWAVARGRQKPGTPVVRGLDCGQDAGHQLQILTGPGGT
As to the kind of experiment: FACS, mTrem2 cells.

Experiment [2] has as its target T2, human monomeric His tagged TREM2 protein (human, UniProt Q9NZC2 19-174).
T2 construct: also called hTREM2-HIS
T2 sequence: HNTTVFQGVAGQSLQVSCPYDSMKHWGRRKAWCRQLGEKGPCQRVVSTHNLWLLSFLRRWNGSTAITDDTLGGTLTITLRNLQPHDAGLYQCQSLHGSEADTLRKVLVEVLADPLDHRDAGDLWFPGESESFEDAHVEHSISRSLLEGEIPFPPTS
As to the kind of experiment: ForteBio or MSD-SET, monovalent. (Biolayer interferometry detects binding as a change in optical thickness at a sensor tip.)

Experiment [3] addresses T3, mouse TREM2 Fc fusion protein (mouse, UniProt Q99NH8 19-171).
T3 construct: also called mTREM2-Fc; not shown: Fc part not specified
T3 sequence (looked up): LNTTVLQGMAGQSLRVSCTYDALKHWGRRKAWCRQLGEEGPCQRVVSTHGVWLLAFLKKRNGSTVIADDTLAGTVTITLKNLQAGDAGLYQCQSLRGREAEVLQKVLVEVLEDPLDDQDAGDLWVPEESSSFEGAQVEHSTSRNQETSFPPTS
The experiment can be described thus: ForteBio or MSD-SET, avid.

The target of experiment [4] is T4, human TREM2 Fc fusion protein (human, UniProt Q9NZC2 19-174).
T4 construct: also called hTREM2-Fc; not shown: Fc part not specified
T4 sequence: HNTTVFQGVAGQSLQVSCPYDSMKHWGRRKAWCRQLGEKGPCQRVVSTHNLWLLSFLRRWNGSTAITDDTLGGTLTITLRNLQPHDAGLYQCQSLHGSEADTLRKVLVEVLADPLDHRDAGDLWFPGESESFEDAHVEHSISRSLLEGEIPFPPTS
As to the kind of experiment: ForteBio or MSD-SET, avid.

From US20260209350A1 (Alector, published 2026) come the findings set out here.

B1: Ab40 (antibody, human IgG1, V domains shown)
VH: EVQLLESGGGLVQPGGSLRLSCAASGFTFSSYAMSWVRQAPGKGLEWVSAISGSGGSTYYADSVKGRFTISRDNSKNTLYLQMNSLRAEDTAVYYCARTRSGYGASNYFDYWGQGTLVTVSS
VL: DIQMTQSPSSLSASVGDRVTITCRASQSISSYLNWYQQKPGKAPKLLIYAASSLQSGVPSRFSGSGSGTDFTLTISSLQPEDFATYYCQQGYAAPITFGGGTKVEIK
notes: human IgG1
On to B1, for which the MFI in experiment [1] was 577 MFI. In addition, the Kd stood at 7.97 nM in experiment [2], 6.03 nM in experiment [3] and 0.197 nM in experiment [4].

B2: Ab63 (antibody, human IgG1, V domains shown)
VH: QVQLVQSGAEVKKPGASVKVSCKASGYTFTSYGISWVRQAPGQGLEWMGWISTYNGNTNYAQKLQGRVTMTTDTSTSTAYMELRSLRSDDTAVYYCARGSGSGYDSWYDWGQGTLVTVSS
VL: DIQMTQSPSSVSASVGDRVTITCRASQGIDSWLAWYQQKPGKAPKLLIYAASSLQSGVPSRFSGSGSGTDFTLTISSLQPEDFATYYCQQAYSLPPTFGGGTKVEIK
notes: human IgG1
In the case of B2, the MFI in experiment [1] came out at 1720 MFI. The Kd in experiment [2] was determined as 49.6 nM; in experiment [4] it was 1.13 nM. The binding result in experiment [3] is “no binding”.

B3: Ab84 (antibody, human IgG1, V domains shown)
VH: QVQLVQSGAEVKKPGASVKVSCKASGYTFTSYGISWVRQAPGQGLEWMGWISTYNGNTNYAQKLQGRVTMTTDTSTSTAYMELRSLRSDDTAVYYCARGSGSGYDSWYDWGQGTLVTVSS
VL: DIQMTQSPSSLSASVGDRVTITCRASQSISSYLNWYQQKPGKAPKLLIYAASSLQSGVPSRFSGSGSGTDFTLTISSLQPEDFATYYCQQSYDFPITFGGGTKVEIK
notes: human IgG1
Regarding B3, the MFI in experiment [1] worked out at 799 MFI. For the same molecule, the Kd in experiment [2] came out at 60.4 nM; in experiment [4] it was 1.16 nM. Further, in experiment [3], the binding result is given as “no binding”.

B4: Ab58 (antibody, human IgG1, V domains shown)
VH: EVQLVQSGAEVKKPGESLKISCKGSGYSFTSYWIGWVRQMPGKGLEWMGIIYPGDSDTRYSPSFQGQVTISADKSISTAYLQWSSLKASDTAMYYCARLGIYSTGATAFDIWGQGTMVTVSS
VL: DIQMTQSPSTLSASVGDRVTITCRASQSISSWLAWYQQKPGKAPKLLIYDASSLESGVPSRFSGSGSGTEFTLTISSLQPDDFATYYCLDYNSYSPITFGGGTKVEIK
notes: human IgG1
In experiment [1], B4 came in with an MFI of 1870 MFI. For the same molecule, the Kd is 2.73 nM in experiment [2] and 0.575 nM in experiment [4]. Besides, the binding result in experiment [3] is on record as “no binding”.

B5: Ab38 (antibody, human IgG1, V domains shown)
VH: QVQLVESGGGVVQPGRSLRLSCAASGFTFSTYGMHWVRQAPGKGLEWVAVIWYDGSNKYYADSVKGRFTISRDNSKNTLYLQMNSLRAEDTAVYYCARGAPVDYGGIEPEYFQHWGQGTLVTVSS
VL: EIVLTQSPATLSLSPGERATLSCRASQSVSSYLAWYQQKPGQAPRLLIYDASNRATGIPARFSGSGSGTDFTLTISSLEPEDFAVYYCQQIDFLPYTFGGGTKVEIK
notes: human IgG1
As to B5, the MFI in experiment [1] turned out to be 297 MFI. The Kd in experiment [2] was 13.1 nM; in experiment [4], 0.96 nM. Also, the binding result in experiment [3] is “no binding”.

B6: Ab57 (antibody, human IgG1, V domains shown)
VH: QVQLVQSGAEVKKPGASVKVSCKASGYTFTNYGISWVRQAPGQGLEWMGWISAYNGNTNYAQKLQGRVTMTTDTSTSTAYMELRSLRSDDTAVYYCARGPTKAYYGSGSYVVFDPWGQGTLVTVSS
VL: EIVLTQSPATLSLSPGERATLSCRASQSVSSYLAWYQQKPGQAPRLLIYDASKRATGIPARFSGSGSGTDFTLTISSLEPEDFAVYYCQQVSLFPLTFGGGTKVEIK
notes: human IgG1
In the case of B6, the MFI in experiment [1] worked out at 10200 MFI. The Kd was found to be 18.3 nM in experiment [2], 0.598 nM in experiment [3] and 0.436 nM in experiment [4].

B7: Ab55 (antibody, human IgG1, V domains shown)
VH: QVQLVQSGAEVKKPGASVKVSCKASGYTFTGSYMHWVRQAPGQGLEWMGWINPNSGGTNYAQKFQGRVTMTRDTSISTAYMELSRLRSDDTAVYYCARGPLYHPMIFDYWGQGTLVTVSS
VL: EIVLTQSPATLSLSPGERATLSCRASQSVSSYLAWYQQKPGQAPRLLIYDASNRATGIPARFSGSGSGTDFTLTISSLEPEDFAVYYCQQLSTYPLTFGGGTKVEIK
notes: human IgG1
Take B7: the MFI in experiment [1] came out at 6220 MFI. Further, the Kd worked out at 91.7 nM in experiment [2], 1.17 nM in experiment [3] and 2.22 nM in experiment [4].

B8: Ab66 (antibody, human IgG1, V domains shown)
VH: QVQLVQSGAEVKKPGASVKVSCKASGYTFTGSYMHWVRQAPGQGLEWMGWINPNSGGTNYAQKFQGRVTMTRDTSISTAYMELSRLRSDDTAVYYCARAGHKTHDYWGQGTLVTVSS
VL: EIVLTQSPGTLSLSPGERATLSCRASQSVSSYLAWYQQKPGQAPRLLIYDASNRATGIPARFSGSGSGTDFTLTISSLEPEDFAVYYCQQRSAYPITFGGGTKVEIK
notes: human IgG1
As to B8, the MFI in experiment [1] came out at 4100 MFI. The results for the Kd in experiment [2], in experiment [3] and in experiment [4] were 60.7 nM, 3.88 nM and 1.98 nM, respectively.

B9: Ab48 (antibody, human IgG1, V domains shown)
VH: QVQLVQSGAEVKKPGASVKVSCKASGYTFTSYYMHWVRQAPGQGLEWMGIINPSGGSTTYAQKFQGRVTMTRDTSTSTVYMELSSLRSEDTAVYYCARPGKSMDVWGQGTTVTVSS
VL: EIVLTQSPATLSLSPGERATLSCRASQSVSSYLAWYQQKPGQAPRLLIYDASNRATGIPARFSGSGSGTDFTLTISSLEPEDFAVYYCQQRAAYPITFGGGTKVEIK
notes: human IgG1
Molecule B9 returned an MFI in experiment [1] of 9770 MFI. Further, the values for the Kd in experiment [2], in experiment [3] and in experiment [4] were 9.08 nM, 1.41 nM and 0.35 nM, respectively.

B10: Ab46 (antibody, human IgG1, V domains shown)
VH: QVQLVQSGAEVKKPGASVKVSCKASGYTFTSYYMHWVRQAPGQGLEWMGIINPSGGSTSYAQKFQGRVTMTRDTSTSTVYMELSSLRSEDTAVYYCARPAKTADYWGQGTLVTVSS
VL: EIVLTQSPATLSLSPGERATLSCRASQSVSSYLAWYQQKPGQAPRLLIYDSSNRATGIPARFSGSGSGTDFTLTISSLEPEDFAVYYCQQRSNYPITFGGGTKVEIK
notes: human IgG1
Regarding B10, the MFI in experiment [1] is 4260 MFI. Besides, the equilibrium dissociation constant (Kd) in experiment [2] worked out at 16.8 nM; in experiment [3] it was 2.46 nM; in experiment [4], 0.445 nM.

B11: Ab69 (antibody, human IgG1, V domains shown)
VH: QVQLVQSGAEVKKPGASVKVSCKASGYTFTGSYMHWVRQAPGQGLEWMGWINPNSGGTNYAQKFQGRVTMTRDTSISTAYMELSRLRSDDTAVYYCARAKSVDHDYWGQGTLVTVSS
VL: EIVLTQSPATLSLSPGERATLSCRASQSVSSYLAWYQQKPGQAPRLLIYDASNRATGIPARFSGSGSGTDFTLTISSLEPEDFAVYYCQQRADYPITFGGGTKVEIK
notes: human IgG1
B11 yielded an MFI in experiment [1] of 629 MFI. The Kd in experiment [2] was found to be 59.7 nM; in experiment [3], 3.4 nM; in experiment [4], 3.75 nM.

B12: Ab49 (antibody, human IgG1, V domains shown)
VH: QVQLVQSGAEVKKPGASVKVSCKASGYTFTSYYMHWVRQAPGQGLEWMGIINPSGGSTSYAQKFQGRVTMTRDTSTSTVYMELSSLRSEDTAVYYCARPAKTADYWGQGTLVTVSS
VL: EIVLTQSPATLSLSPGERATLSCRASQSVSSYLAWYQQKPGQAPRLLIYDASKRATGIPARFSGSGSGTDFTLTISSLEPEDFAVYYCQQRTSHPITFGGGTKVEIK
notes: human IgG1
The molecule B12 yielded an MFI in experiment [1] of 4320 MFI. In addition, the Kd in experiment [2] turned out to be 17.4 nM; in experiment [3] it was 2.08 nM; in experiment [4] it was 0.435 nM.

B13: Ab47 (antibody, human IgG1, V domains shown)
VH: QVQLVQSGAEVKKPGASVKVSCKASGYTFTSYYMHWVRQAPGQGLEWMGIINPSGGSTTYAQKFQGRVTMTRDTSTSTVYMELSSLRSEDTAVYYCARPGKSMDVWGQGTTVTVSS
VL: EIVLTQSPGTLSLSPGERATLSCRASQSVSSYLAWYQQKPGQAPRLLIYDASNRATGIPARFSGSGSGTDFTLTISSLEPEDFAVYYCQQRILYPITFGGGTKVEIK
notes: human IgG1
In experiment [1], B13 gave an MFI of 10100 MFI. Further, the Kd amounted to 7.37 nM in experiment [2], 1.45 nM in experiment [3] and 0.431 nM in experiment [4].

B14: Ab67 (antibody, human IgG1, V domains shown)
VH: QVQLVQSGAEVKKPGASVKVSCKASGYTFTSYYMHWVRQAPGQGLEWMGIINPSGGSTTYAQKFQGRVTMTRDTSTSTVYMELSSLRSEDTAVYYCARPGKSMDVWGQGTTVTVSS
VL: EIVLTQSPATLSLSPGERATLSCRASQSVSSYLAWYQQKPGQAPRLLIYDASNRATGIPARFSGSGSGTDFTLTISSLEPEDFAVYYCQQRSHFPITFGGGTKVEIK
notes: human IgG1
With B14, the MFI in experiment [1] is 6210 MFI. Moreover, the values for the Kd in experiment [2], in experiment [3] and in experiment [4] were 34.5 nM, 2.92 nM and 0.66 nM, respectively.

B15: Ab50 (antibody, human IgG1, V domains shown)
VH: QVQLVQSGAEVKKPGASVKVSCKASGYTFTSYYIHWVRQAPGQGLEWMGIINPSGGSTSYAQKFQGRVTMTRDTSTSTVYMELSSLRSEDTAVYYCARAPQESPYVFDIWGQGTMVTVSS
VL: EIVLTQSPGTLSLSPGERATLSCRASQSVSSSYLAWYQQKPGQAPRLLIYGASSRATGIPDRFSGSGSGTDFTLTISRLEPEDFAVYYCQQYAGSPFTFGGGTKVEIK
notes: human IgG1
As to B15, in experiment [1], the MFI is 325 MFI. Besides, the results for the Kd in experiment [2] and in experiment [4] were 36.4 nM and 0.729 nM, respectively. In experiment [3], the binding result is “no binding”.

B16: Ab53 (antibody, human IgG1, V domains shown)
VH: QVQLVQSGAEVKKPGASVKVSCKASGYTFTSYYIHWVRQAPGQGLEWMGIINPSGGSTSYAQKFQGRVTMTRDTSTSTVYMELSSLRSEDTAVYYCARAPQESPYVFDIWGQGTMVTVSS
VL: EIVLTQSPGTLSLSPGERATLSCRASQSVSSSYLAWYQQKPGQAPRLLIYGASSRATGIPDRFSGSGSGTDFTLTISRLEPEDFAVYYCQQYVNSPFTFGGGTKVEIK
notes: human IgG1
As to B16, in experiment [1], the MFI came to 843 MFI. The Kd in experiment [2] is 21.6 nM; in experiment [4], 0.635 nM. For the same molecule, the binding result in experiment [3] is listed as “no binding”.

B17: Ab5 (antibody, human IgG1, V domains shown)
VH: QVQLVQSGAEVKKPGASVKVSCKASGYTFTSYYIHWVRQAPGQGLEWMGIINPSGGSTSYAQKFQGRVTMTRDTSTSTVYMELSSLRSEDTAVYYCARAPQESPYVFDIWGQGTMVTVSS
VL: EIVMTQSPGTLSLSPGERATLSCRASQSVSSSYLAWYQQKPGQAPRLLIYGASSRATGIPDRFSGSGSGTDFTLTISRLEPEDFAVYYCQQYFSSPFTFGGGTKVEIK
notes: human IgG1
For B17, the MFI in experiment [1] is 310 MFI. The Kd in experiment [2] is 30 nM; in experiment [4], 0.697 nM. Further, the binding result in experiment [3] is given as “no binding”.

The term Kd denotes the free concentration of one partner at which half of the binding sites on the other are occupied at equilibrium, for simple one-to-one binding.
